Our source for the T-crosslink intensity relative to WT TycA, D-Phe-L-Pro-DKP production with TycB1, normalised to wild-type TycA and L-crosslink intensity relative to WT TycA values is doi:10.1101/2025.06.08.658476.

The target of test [1] is TycB1(S5Bpa)-His6, TycB1[COM^A-C-A-PCP] with p-benzoylphenylalanine at Ser5 (construct 25), holo-form. In words: cross-linking.
For test [2], the target named is TycB1-His6, TycB1[COM^A-C-A-PCP] (construct 17), holo-form.

In test [1], “SBP-TycA P1063A, mutation in the lid (construct 24), holo-form (enzyme)” returned a T-crosslink intensity relative to WT TycA of 46%.
As to “SBP-TycA with the single V1059 in the seam region deleted (construct 23), holo-form (enzyme)”, the T-crosslink intensity relative to WT TycA in test [1] is 33%.
Consider “SBP-TycA ΔV1059 to K1069, seam and lid deletion mutant (construct 19), holo-form (enzyme)”, for which the D-Phe-L-Pro-DKP production with TycB1, normalised to wild-type TycA in test [2] worked out at 9%. In test [1], this substance returned a L-crosslink intensity relative to WT TycA of 38% and a T-crosslink intensity relative to WT TycA of 5%.
